± gives the uncertainty stated by the source.
B1: E3 ubiquitin-protein ligase TRIM36, residues 208 to 252; numbered along this chain, Q9NQ86 (parent)
chain: KILMCPEHETERINMYCELCRRPVCHLCKLGGNHANHRVTTMSSA

Variants of: B1
Experiment: abundance fitness (aPCA) (normalised: wild type 0, dead -1); higher = more abundant; growth selection in yeast, the domain comes from the species named
Settings: Homo sapiens

Row | Variant | abundance fitness
1 | KILMCPEHETERINMYCELCRRPVCHLCKHGGNHANHRVTTMSSA [L30H] | -0.078 ± 0.097
2 | KILMCPEHETERINMYCELCRRPVCHLCKDGGNHANHRVTTMSSA [L30D] | 0.083 ± 0.063
3 | KILMCPEHETERINMYCELCRRPVCHLCKIGGNHANHRVTTMSSA [L30I] | -0.05 ± 0.11
4 | KILMCPEHETERINMYCELCRRPVCHLCKVGGNHANHRVTTMSSA [L30V] | 0.026 ± 0.048
5 | KILMCPEHETERINMYCELCRRPVCHLCKAGGNHANHRVTTMSSA [L30A] | 0.094 ± 0.05
6 | KILMCPEHETERINMYCELCRRPVCHLCKTGGNHANHRVTTMSSA [L30T] | 0.096 ± 0.058
7 | KILMCPEHETERINMYCELCRRPVCHLCKPGGNHANHRVTTMSSA [L30P] | 0.005 ± 0.056
8 | KILMCPEHETERINMYCELCRRPVCHLCKWGGNHANHRVTTMSSA [L30W] | -0.203 ± 0.058
9 | KILMCPEHETERINMYCELCRRPVCHLCKFGGNHANHRVTTMSSA [L30F] | -0.206 ± 0.14
10 | KILMCPEHETERINMYCELCRRPVCHLCKRGGNHANHRVTTMSSA [L30R] | 0.045 ± 0.049
11 | KILMCPEHETERINMYCELCRRPVCHLCKKGGNHANHRVTTMSSA [L30K] | 0.101 ± 0.065
12 | KILMCPEHETERINMYCELCRRPVCHLCKNGGNHANHRVTTMSSA [L30N] | 0.042 ± 0.089
13 | KILMCPEHETERINMYCELCRRPVCHLKKLGGNHANHRVTTMSSA [C28K] | -0.592 ± 0.13
14 | KILMCPEHETERINMYCELCRRPVCHLSKLGGNHANHRVTTMSSA [C28S] | -0.445 ± 0.059
15 | KILMCPEHETERINMYCELCRRPVCHLDKLGGNHANHRVTTMSSA [C28D] | 0.302 ± 0.27
16 | KILMCPEHETERINMYCELCRRPVCHLTKLGGNHANHRVTTMSSA [C28T] | -0.777 ± 0.13
17 | KILMCPEHETERINMYCELCRRPVCHLWKLGGNHANHRVTTMSSA [C28W] | -0.91 ± 0.072
18 | KILMCPEHETERINMYCELCRRPVCHLAKLGGNHANHRVTTMSSA [C28A] | -0.672 ± 0.079
19 | KILMCPEHETERINMYCELCRRPVCHLEKLGGNHANHRVTTMSSA [C28E] | -0.275 ± 0.057

Row | Variant | abundance fitness
20 | KILMCPEHETERINMYCELCRRPVCHLQKLGGNHANHRVTTMSSA [C28Q] | -0.399 ± 0.068
21 | KILMCPEHETERINMYCELCRRPVCHLIKLGGNHANHRVTTMSSA [C28I] | -0.613 ± 0.09
22 | KILMCPEHETERINMYCELCRRPVCHLPKLGGNHANHRVTTMSSA [C28P] | -0.579 ± 0.088
23 | KILMCPEHETERINMYCELCRRPVCHLFKLGGNHANHRVTTMSSA [C28F] | -1.14 ± 0.23
24 | KILMCPEHETERINMYCELCRRPVCHLLKLGGNHANHRVTTMSSA [C28L] | -0.826 ± 0.06
25 | KILMCPEHETERINMYCELCRRPVCHLMKLGGNHANHRVTTMSSA [C28M] | -0.723 ± 0.13
26 | KILMCPEHETERINMYCELCRRPVCHLVKLGGNHANHRVTTMSSA [C28V] | -0.525 ± 0.062
27 | KILMCPEHETERINMYCELCRRPVCHLNKLGGNHANHRVTTMSSA [C28N] | -0.546 ± 0.41
28 | KILMCPEHETERINMYCELCRRPVCHLYKLGGNHANHRVTTMSSA [C28Y] | -0.904 ± 0.27
29 | KILMCPEHETERINMYCELCRRPVCHLGKLGGNHANHRVTTMSSA [C28G] | -0.608 ± 0.05
30 | KILMCPEHETERINMYCELCRRPVCHLHKLGGNHANHRVTTMSSA [C28H] | -0.763 ± 0.16
31 | KILMCPEHETERINMYCELCRRPVCHLRKLGGNHANHRVTTMSSA [C28R] | -0.637 ± 0.052
32 | KILMCPEHETERINMYCELCRRPVCHLCWLGGNHANHRVTTMSSA [K29W] | -0.12 ± 0.07
33 | KILMCPEHETERINMYCELCRRPVCHLCPLGGNHANHRVTTMSSA [K29P] | -0.043 ± 0.065
34 | KILMCPEHETERINMYCELCRRPVCHLCTLGGNHANHRVTTMSSA [K29T] | -0.009 ± 0.063
35 | KILMCPEHETERINMYCELCRRPVCHLCFLGGNHANHRVTTMSSA [K29F] | 0.001 ± 0.096
36 | KILMCPEHETERINMYCELCRRPVCHLCRLGGNHANHRVTTMSSA [K29R] | -0.025 ± 0.051
37 | KILMCPEHETERINMYCELCRRPVCHLCVLGGNHANHRVTTMSSA [K29V] | 0.004 ± 0.054
38 | KILMCPEHETERINMYCELCRRPVCHLCALGGNHANHRVTTMSSA [K29A] | 0.012 ± 0.047

Row | Variant | abundance fitness
39 | KILMCPEHETERINMYCELCRRPVCHLCCLGGNHANHRVTTMSSA [K29C] | -0.07 ± 0.074
40 | KILMCPEHETERINMYCELCRRPVCHLCQLGGNHANHRVTTMSSA [K29Q] | 0.019 ± 0.074
41 | KILMCPEHETERINMYCELCRRPVCHLCSLGGNHANHRVTTMSSA [K29S] | 0.003 ± 0.055
42 | KILMCPEHETERINMYCELCRRPVCHLCDLGGNHANHRVTTMSSA [K29D] | 0.126 ± 0.12
43 | KILMCPEHETERINMYCELCRRPVCHLCLLGGNHANHRVTTMSSA [K29L] | 0.039 ± 0.055
44 | KILMCPEHETERINMYCELCRRPVCHLCMLGGNHANHRVTTMSSA [K29M] | -0.057 ± 0.057
45 | KILMCPEHETERINMYCELCRRPVCHLCHLGGNHANHRVTTMSSA [K29H] | -0.066 ± 0.075
46 | KILMCPEHETERINMYCELCRRPVCHLCGLGGNHANHRVTTMSSA [K29G] | -0.009 ± 0.048
47 | KILMCPEHETERINMYCELCRRPVCHLCYLGGNHANHRVTTMSSA [K29Y] | -0.012 ± 0.063
48 | KILMCPEHETERINMYCELCRRPVCHLCILGGNHANHRVTTMSSA [K29I] | -0.13 ± 0.064
49 | KILMCPEHETERINMYCELCRRPVCHLCELGGNHANHRVTTMSSA [K29E] | 0.048 ± 0.054
50 | KILMCPEHETERINMYCELCRRPVCHLCNLGGNHANHRVTTMSSA [K29N] | 0.072 ± 0.084
51 | KILMCPEHETERINMYCELCRRPVCHLCKLHGNHANHRVTTMSSA [G31H] | -0.08 ± 0.056
52 | KILMCPEHETERINMYCELCRRPVCHLCKLDGNHANHRVTTMSSA [G31D] | -0.109 ± 0.079
53 | KILMCPEHETERINMYCELCRRPVCHLCKLFGNHANHRVTTMSSA [G31F] | -0.218 ± 0.094
54 | KILMCPEHETERINMYCELCRRPVCHLCKLIGNHANHRVTTMSSA [G31I] | -0.203 ± 0.081
55 | KILMCPEHETERINMYCELCRRPVCHLCKLCGNHANHRVTTMSSA [G31C] | -0.094 ± 0.069
56 | KILMCPEHETERINMYCELCRRPVCHLCKLEGNHANHRVTTMSSA [G31E] | -0.111 ± 0.063
57 | KILMCPEHETERINMYCELCRRPVCHLCKLAGNHANHRVTTMSSA [G31A] | -0.034 ± 0.046

Source: the Human Domainome abundance scans (Beltran et al. 2025)
